Measured values from publication PMC3915903 (Cell Research, 2013).
Residue numbers refer to the chain shown, from its start. Names and notes keep the numbering of the source.

B1: Human PTPA, wild-type (natural protein)
chain: MAEGERQPPPDSSEEAPPATQNFIIPKKEIHTVPDMGKWKRSQAYADYIGFILTLNEGVKGKKLTFEYRVSEAIEKLVALLNTLDRWIDETPPVDQPSRFGNKAYRTWYAKLDEEAENLVATVVPTHLAAAVPEVAVYLKESVGNSTRIDYGTGHEAAFAAFLCCLCKIGVLRVDDQIAIVFKVFNRYLEVMRKLQKTYRMEPAGSQGVWGLDDFQFLPFIWGSSQLIDHPYLEPRHFVDEKAVNENHKDYMFLECILFITEMKTGPFAEHSNQLWNISAVPSWSKVNQGLIRMYKAECLEKFPVIQHFKFGSLLPIHPVTSG
B2: PTPA F100D (natural protein)
chain: B1 chain with F100D
B3: PTPA V281A (natural protein)
chain: B1 chain with V281A
B4: PTPA V209D (natural protein)
chain: B1 chain with V209D
B5: PTPA R293E (natural protein)
chain: B1 chain with R293E
B6: PTPA M294K (natural protein)
chain: B1 chain with M294K

target: GST-tagged PP2A core enzyme (AC heterodimer) (human, UniProt P30153;P67775); assay: pull-down
Sequence (P30153 whole entry, chain 1 of 2): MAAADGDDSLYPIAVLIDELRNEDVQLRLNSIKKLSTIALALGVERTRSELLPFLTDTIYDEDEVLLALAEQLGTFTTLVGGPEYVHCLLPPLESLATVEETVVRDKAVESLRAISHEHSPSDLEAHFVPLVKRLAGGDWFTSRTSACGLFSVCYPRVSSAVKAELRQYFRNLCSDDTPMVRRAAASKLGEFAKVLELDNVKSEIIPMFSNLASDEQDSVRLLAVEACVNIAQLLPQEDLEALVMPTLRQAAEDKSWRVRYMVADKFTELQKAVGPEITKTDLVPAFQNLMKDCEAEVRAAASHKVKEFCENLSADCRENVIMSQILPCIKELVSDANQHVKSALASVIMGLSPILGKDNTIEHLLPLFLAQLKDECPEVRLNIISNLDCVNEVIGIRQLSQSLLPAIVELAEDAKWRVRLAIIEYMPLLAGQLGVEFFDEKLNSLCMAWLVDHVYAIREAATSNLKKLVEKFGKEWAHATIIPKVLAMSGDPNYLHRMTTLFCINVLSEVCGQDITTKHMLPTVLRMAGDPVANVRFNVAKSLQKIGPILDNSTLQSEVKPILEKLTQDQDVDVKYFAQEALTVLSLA
Sequence (P67775 whole entry, chain 2 of 2): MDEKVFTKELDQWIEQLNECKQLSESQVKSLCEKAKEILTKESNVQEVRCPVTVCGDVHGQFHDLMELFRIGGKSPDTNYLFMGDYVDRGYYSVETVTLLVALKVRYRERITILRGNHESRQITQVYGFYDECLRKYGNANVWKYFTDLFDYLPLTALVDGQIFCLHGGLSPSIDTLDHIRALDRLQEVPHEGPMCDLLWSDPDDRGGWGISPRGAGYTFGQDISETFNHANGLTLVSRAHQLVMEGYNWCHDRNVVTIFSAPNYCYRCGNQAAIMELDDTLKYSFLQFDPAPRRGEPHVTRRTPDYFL

binding result	Binder
binds	B1
binds	B2
binds	B3
binds	B4
binds	B5
binds	B6
